Molecular target: SARS-CoV-2 S receptor-binding domain (RBD), construct for crystallography (SARS-CoV-2, GenBank QHD43416.1 …, UniProt P0DTC2)
Assay: crystal structure

Binder	binding result
C1A-B3 Fab (Fab, V domains shown) VH: EVQLVESGGGLIQPGGSLRLSCAASGFTVSSNYMSWVRQAPGKGLEWVSVIYSGGTTYYADSVKGRFTISRDNSKNTVFLQMNSLRAEDTAVYYCARGDVSGYRYGLDYWGQGTLVTVS VL: DIQLTQSPSSLSASVGDRVTITCRASQGISSYLAWYQQKPGKAPKLLIYAASTLQSGVPSRFSGSGSGTDFTLTISSLQPEDFATYYCQQLNSYPGTFGQGTKLEIK	binds
C1A-C2 Fab (Fab, V domains shown) VH: EVQLVESGGGLIQPGGSLRLSCAVSGFTVSNNYMSWVRQAPGKGLEWVSVIYSGGTTYYADSVKGRFTISRDNSKNTLYLQMNSLRAEDTAVYYCARGDVSGYRYGLDYWGQGTLVTVS VL: DIQLTQSPSSLSAFVGDRVTITCRASEGISSYLAWYQQKPGNAPKLLIYAASTLESGVPSRFSGSGSGTDFTLTISSLQPEDFATYYCQQLNSYPGTFGQGTKLEIK	binds
C1A-F10 Fab (Fab, V domains shown) VH: EVQLVESGGGLIQPGGSLRLSCAASGFTVSSNYMSWVRQAPGKGLEWVSVIYSGGTTYYADSVKGRFTISRDNSKNTLYLQMNSLRAEDTAVYYCARGDVSGYRYGLDYWGQGTLVTVS VL: DIQLTQSPSSLSASVGDRVTITCRASQGISSYLAWYQQKPGKAPKLLIYAASTLENGVPSRFSGSGSGTDFTLTISSLQPEDFATYYCQQLNSYPGTFGQGTKLEIK	binds
